Results taken from patent US20200362323.

Tests used:
Assay in all cases: cell_activity
[1] = system: mouse TRB1-TALEN right (artificial (Xanthomonas TALE-FokI)?); conditions: SSA reporter assay in HEK293T, pair with left TALEN; site given as top strand
[2] = system: mouse TRA2-TALEN right (artificial (Xanthomonas TALE-FokI)?); conditions: SSA reporter assay in HEK293T, pair with left TALEN; site given as top strand
[3] = system: mouse TRB2-TALEN right (artificial (Xanthomonas TALE-FokI)?); conditions: SSA reporter assay in HEK293T, pair with left TALEN; site given as top strand
[4] = system: mouse TRA2-TALEN left (artificial (Xanthomonas TALE-FokI)?); conditions: SSA reporter assay in HEK293T, pair with right TALEN
[5] = system: mouse TRB1-TALEN left (artificial (Xanthomonas TALE-FokI)?); conditions: SSA reporter assay in HEK293T, pair with right TALEN
[6] = system: mouse TRB2-TALEN left (artificial (Xanthomonas TALE-FokI)?); conditions: SSA reporter assay in HEK293T, pair with right TALEN

**Q.** For “AAAAGCAGAGATTGCAAACA (double strand) [mouse TRB1 right target]”, which activity (fold vs ZFA36) [1] is on record?
**A.** The activity (fold vs ZFA36) was 3.79.

**Q.** Which activity (fold vs ZFA36) [2] does the source give for “AATGTGCCGAAAACCATGGA (double strand) [mouse TRA2 right target]” here?
**A.** The activity (fold vs ZFA36) was 3.09.

**Q.** Which activity (fold vs ZFA36) [3] does the source give for “GGAGCTGAGCTGGTGGGTGA (double strand) [mouse TRB2 right target]” here?
**A.** The activity (fold vs ZFA36) was 3.41.

**Q.** How did the activity (fold vs ZFA36) [4] turn out when “TCTGCCTGTTCACCGACT (double strand) [mouse TRA2 left target]” was run?
**A.** Its activity (fold vs ZFA36) is 3.09.

**Q.** With “TGACTCCACCCAAGGTCTCC (double strand) [mouse TRB1 left target]” as the sequence, how does the activity (fold vs ZFA36) [5] read?
**A.** The activity (fold vs ZFA36) was 3.79.

**Q.** With “TGTGCTTGGCCAGGGGCTTC (double strand) [mouse TRB2 left target]” as the sequence, how does the activity (fold vs ZFA36) [6] read?
**A.** Its activity (fold vs ZFA36) is 3.41.
